Measurements reported in US20220409739A1 (OXFORD UNIVERSITY INNOVATION, published 2022).

B1: mitochondrial import receptor subunit TOM20 (other, UniProt Q15388 1-145, looked up)
chain: MVGRNSAIAAGVCGALFIGYCIYFDRKRRSDPNFKNRLRERRKKQKLAKERAGLSKLPDLKDAEAVQKFFLEEIQLGEELLAQGEYEKGVDHLTNAIAVCGQPQQLLQVLQQTLPPPVFQMLLTKLPTISQRIVSAQSLAEDDVE
B2: GAPDH-cMyc protein (enzyme)
chain: not shown
notes: also called GAPDH-cMye; not shown: cMyc tag

How the values were obtained:
Assay in all cases: co-immunoprecipitation on cMyc beads from HEK293T cell lysate, western blot
GAPDH-cMyc protein = biological target: B2
GAPDH-cMyc protein, sequence (P04406 whole entry): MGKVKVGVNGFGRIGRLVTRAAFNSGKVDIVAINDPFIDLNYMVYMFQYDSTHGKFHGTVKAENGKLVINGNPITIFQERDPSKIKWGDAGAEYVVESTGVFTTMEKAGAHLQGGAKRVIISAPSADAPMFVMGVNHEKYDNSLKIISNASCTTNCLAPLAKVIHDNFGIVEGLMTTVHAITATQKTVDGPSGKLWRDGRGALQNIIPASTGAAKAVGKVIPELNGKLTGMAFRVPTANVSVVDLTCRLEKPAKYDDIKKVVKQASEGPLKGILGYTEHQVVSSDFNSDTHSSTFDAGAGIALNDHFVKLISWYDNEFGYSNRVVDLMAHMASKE

[1] = biological target: Insulin triphosphate receptor 3 (IPR3) (UniProt Q14573 1-2671)
Insulin triphosphate receptor 3 (IPR3), sequence (Q14573 whole entry): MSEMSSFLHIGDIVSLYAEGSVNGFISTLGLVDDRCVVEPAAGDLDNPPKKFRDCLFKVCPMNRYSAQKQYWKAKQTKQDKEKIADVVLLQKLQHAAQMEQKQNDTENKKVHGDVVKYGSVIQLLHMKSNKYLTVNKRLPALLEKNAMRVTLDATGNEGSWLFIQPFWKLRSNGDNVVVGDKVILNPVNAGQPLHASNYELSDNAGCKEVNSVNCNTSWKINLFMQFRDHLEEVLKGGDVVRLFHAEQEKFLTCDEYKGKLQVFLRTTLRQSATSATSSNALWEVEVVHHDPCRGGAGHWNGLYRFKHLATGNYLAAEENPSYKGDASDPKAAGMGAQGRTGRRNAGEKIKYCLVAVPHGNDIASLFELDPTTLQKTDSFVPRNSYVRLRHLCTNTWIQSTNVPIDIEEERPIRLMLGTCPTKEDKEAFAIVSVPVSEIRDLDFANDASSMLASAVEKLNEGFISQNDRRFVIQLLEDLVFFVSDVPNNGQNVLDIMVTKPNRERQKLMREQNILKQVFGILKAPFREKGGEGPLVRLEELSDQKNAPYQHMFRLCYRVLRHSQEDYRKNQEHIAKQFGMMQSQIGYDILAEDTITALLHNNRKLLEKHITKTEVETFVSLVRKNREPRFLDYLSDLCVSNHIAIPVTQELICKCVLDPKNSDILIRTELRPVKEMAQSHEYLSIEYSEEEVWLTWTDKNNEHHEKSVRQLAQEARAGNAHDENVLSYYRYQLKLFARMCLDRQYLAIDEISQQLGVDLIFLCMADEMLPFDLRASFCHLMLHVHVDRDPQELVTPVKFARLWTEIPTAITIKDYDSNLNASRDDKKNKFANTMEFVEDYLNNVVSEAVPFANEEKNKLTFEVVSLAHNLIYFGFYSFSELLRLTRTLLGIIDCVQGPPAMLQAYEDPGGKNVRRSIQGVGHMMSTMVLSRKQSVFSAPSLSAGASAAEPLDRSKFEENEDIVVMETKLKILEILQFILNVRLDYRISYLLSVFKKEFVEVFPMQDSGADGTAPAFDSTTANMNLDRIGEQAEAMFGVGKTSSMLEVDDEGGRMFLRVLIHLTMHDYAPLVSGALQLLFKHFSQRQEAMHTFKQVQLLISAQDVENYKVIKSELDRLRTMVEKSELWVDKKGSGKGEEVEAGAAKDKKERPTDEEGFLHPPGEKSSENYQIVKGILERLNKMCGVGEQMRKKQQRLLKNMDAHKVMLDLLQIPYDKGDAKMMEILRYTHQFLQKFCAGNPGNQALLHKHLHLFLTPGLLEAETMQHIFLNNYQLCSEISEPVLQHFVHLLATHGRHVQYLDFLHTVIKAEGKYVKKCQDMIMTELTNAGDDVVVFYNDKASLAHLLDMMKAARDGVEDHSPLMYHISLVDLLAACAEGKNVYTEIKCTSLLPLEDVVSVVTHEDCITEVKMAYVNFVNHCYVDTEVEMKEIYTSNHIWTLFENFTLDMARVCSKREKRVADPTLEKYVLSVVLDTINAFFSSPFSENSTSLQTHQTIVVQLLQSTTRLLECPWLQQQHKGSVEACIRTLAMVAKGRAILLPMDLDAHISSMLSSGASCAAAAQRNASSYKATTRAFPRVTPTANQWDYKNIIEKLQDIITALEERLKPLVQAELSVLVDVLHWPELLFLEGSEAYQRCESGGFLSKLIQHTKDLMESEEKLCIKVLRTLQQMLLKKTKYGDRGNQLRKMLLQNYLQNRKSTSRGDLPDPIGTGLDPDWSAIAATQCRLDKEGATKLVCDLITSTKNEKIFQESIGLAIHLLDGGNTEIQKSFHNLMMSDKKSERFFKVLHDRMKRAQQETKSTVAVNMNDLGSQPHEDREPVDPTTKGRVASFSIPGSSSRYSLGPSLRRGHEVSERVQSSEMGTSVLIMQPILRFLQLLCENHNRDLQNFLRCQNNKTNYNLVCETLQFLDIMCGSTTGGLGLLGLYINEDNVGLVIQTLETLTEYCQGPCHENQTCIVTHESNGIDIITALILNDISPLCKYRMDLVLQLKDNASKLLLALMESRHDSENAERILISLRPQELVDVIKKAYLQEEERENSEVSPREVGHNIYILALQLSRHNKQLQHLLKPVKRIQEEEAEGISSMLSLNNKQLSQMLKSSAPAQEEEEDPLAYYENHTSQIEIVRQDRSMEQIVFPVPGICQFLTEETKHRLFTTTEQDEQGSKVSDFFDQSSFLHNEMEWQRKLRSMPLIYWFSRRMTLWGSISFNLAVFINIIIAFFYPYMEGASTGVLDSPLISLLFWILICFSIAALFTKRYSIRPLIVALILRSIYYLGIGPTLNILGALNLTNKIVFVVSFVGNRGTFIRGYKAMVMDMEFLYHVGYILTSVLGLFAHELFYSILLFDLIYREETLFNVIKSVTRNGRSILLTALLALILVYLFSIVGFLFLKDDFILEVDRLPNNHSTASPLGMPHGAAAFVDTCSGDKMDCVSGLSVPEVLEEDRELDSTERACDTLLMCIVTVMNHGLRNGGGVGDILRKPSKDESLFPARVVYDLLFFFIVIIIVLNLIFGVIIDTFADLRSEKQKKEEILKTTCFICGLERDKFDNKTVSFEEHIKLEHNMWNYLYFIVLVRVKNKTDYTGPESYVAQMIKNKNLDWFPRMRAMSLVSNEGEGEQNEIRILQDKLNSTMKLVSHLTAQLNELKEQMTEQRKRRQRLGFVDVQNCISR

Argonuate 2 (Ago2) = Argonuate 2 (Ago2) (UniProt Q9UKV8 1-859)
Argonuate 2 (Ago2), sequence (Q9UKV8 whole entry): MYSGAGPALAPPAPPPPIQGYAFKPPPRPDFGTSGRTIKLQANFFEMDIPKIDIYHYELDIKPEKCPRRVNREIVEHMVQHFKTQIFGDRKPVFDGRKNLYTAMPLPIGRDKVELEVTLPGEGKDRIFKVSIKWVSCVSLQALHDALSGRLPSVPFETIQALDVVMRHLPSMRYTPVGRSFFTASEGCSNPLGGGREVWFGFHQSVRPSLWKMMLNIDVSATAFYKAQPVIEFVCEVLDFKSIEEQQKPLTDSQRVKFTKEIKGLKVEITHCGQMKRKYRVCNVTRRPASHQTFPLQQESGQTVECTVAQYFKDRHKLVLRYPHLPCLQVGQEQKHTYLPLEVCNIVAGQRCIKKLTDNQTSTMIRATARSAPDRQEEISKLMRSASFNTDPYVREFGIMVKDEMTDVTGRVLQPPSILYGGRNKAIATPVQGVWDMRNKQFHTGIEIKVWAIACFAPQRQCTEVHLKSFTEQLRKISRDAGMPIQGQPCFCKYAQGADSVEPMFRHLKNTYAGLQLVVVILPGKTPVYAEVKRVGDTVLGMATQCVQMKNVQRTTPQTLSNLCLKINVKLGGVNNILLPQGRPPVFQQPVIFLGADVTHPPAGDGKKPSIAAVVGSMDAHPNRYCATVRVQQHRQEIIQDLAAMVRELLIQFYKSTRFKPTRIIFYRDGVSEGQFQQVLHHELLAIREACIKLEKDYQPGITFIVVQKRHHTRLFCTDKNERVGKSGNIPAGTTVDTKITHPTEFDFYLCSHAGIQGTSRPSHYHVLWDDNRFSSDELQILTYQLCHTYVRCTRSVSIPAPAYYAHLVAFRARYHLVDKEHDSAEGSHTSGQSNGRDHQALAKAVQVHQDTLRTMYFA

Binder | binding result (GAPDH-cMyc protein) | binding result [1] | binding result (Argonuate 2 (Ago2))
B1 | no binding | – | –
B2 | – | no binding | no binding
